Source: patent US6602687B1, “DNA encoding human ciliary neurotrophic factor and method for producing the protein encoded thereby” (Regeneron Pharmaceuticals, Inc., priority 1989, dated 2003)

Tests used:
[1] = system: dorsal root ganglia and/or dissociated ciliary neurons; assay: Biological activity of modified and truncated CNTF proteins (rapid bacterial extracts); assay type: cell-based, chick; conditions: soluble protein extracted from induced bacteria hosting each plasmid; compared with full length parental protein
Description: Samples for gel electrophoresis were prepared by resuspending cell pellets from 0.5 ml culture OD590=2 in 0.16 ml lysis buffer (100 mM TrisHCl, 10% glycerol, 4% sodium dodecyl sulfate, 1 mM dithiothreitol, 0.5 mg/ml bromophenol blue, pH 6.8) and boiling for 5 minutes.
(§1) Biological activity of recombinant CNTF was assayed on explants of chick embryo dorsal root ganglia (DRG) and dissociated cultures of ciliary ganglion (CG) neurons as described in Lindsay and Rohrer (1985, Devel. Biol 112:30-48). Briefly, DRG were dissected from chick embryos of 10 days incubation (E10) and 5-6 ganglia were explanted in 1 ml of a collagen gel matrix in 35 mm tissue culture dishes. After the gel had set, 1 ml of tissue culture growth medium F14 (Imperial Labs., U.K.) supplemented with 5% heat-inactivated horse serum (GIBCO) was added before adding human CNTF (1-20 l) to a final concentration of 100 pg to 100 ng/ml. CG were dissected from E8 chick embryos and incubated for 30 min in 0.25% trypsin (Worthington) in calcium- and magnesium-free phosphate buffered saline. The ganglia were then washed three times in F14 medium containing 5% horse serum before being dissociated to a single cell suspension by trituration through the bore of a Pasteur pipette. Enrichment for CG neurons was achieved by plating the cell suspension for 3.5 hr in a 60 mm dish, during which non-neuronal cells (fibroblasts and Schwann cells) attached firmly to the plastic while phase-bright neurons remained in suspension. The purified neurons were plated on polyornithine-laminin-coated 35 mm culture dishes at 8,000-10,000 neurons/dish. In explant cultures CNTF activity was determined by assessing the extent of fiber outgrowth in treated cultures compared to controls. Fiber outgrowth was scored on a scale of 0 to 5+, by comparing cultures to photographs of a dose-response of explanted DRG and NGF. In dissociated CG neuron cultures, CNTF activity was determined by counting at 48 hr the percentage of process-bearing neurons in control and CNTF-treated cultures. In all cases results were derived from triplicate cultures.
Biological activity was assayed on dorsal root ganglia and/or dissociated ciliary neurons was determined as described in section 12.1.6. Soluble protein was extracted from induced bacteria hosting each plasmid by the “rapid” protein extraction method described in section 12.1.3.

[2] = system: chick embryonic spinal motorneurons; assay: Survival of chick embryonic spinal motorneurons in culture; assay type: cell-based; parameters: key to Survival: −: not significantly different from control (survival: 8.3 ± 3.8%, mean ± SD, n = 18); ±: about 15-20% (statistically significant from each blank control, p < 0.01); + +: about 35-55%; + ++: about 55-75%
Description: Motorneuron columns were dissected under a stereomicroscope from the lumbar part of the spinal cord of chick embryos on the 6th day of embryonic development and stored in cold calcium and magnesium-free Hanks balanced salt solution supplemented with glucose (4 g/l) (HBSS). The tissues were washed with HBSS and treated with 0.03% trypsin in HBSS at 37° C. for 20 min with gentle shaking, rinsed with cold HBSS and triturated mildly in 3 steps of 8-passage agitation in 1 ml of cold 0.1% soybean trypsin inhibitor (Sigma) in HBSS through a fire-polished siliconized Pasteur pipette. Each supernatant cell suspension was filtered through 50 μm-Nylon mesh, pooled and layered onto 4 ml of cold 6.8% metrizamide (Fluka) in HBSS-25 mM HEPES (pH7.4) in a 12 ml-siliconized conical glass tube. The tube was centrifuged at 400 g for 15 min at 4° C. and the intermediate layer (0.5 ml) was collected into another siliconized tube containing 6.5 ml of cold culture medium (a mixture of glucose (4 g/l)-supplemented Leibovitz's L-15 medium (Gibco), 0.15 M sodium bicarbonate, heat-inactivated and filtered horse serum and penicillin G (10^5 units/ml) at the ratio of 75:15:10:0.1, freshly prepared and buffered with 5% CO2.) After centrifugation at 100×g for 7 min at 4° C., the supernatant was removed and the cells were gently resuspended in culture medium and plated in Greiner 4-well culture dishes (well diameter, 10 mm; C. A. Greiner und Sohne GmbH, Nurtingen, West Germany) at 1000-2000 cells/well. The dishes had been precoated with poly-DL-ornithine (Sigma, 0.5 mg in 0.15 M sodium borate buffer (pH 8.3) overnight at 4° C., rinsed twice with phosphate-buffered saline (PBS) and subsequently coated with laminin (Gibco; 10 μg/ml in the serum-depleted culture medium) and placed in a 5% CO2-incubator until cell plating (5-6 hrs). Cells were incubated at 37° C. in a humidified 5% CO2- and 95% air-incubator. Samples were added one hr after plating and the culture medium changed after 24 hrs and 72 hrs. The initial cell numbers were counted 3 hrs after plating.
In some experiments motor neurons were retrogradely labeled with a fluorescent dye in vivo before cell preparation (U. Dohrman et al., 1986, Dev. Biol. 118:209-221) to identify the motor neuron cell population. A small hole was made in the shell of eggs which had been incubated for 5 days. Small pieces of rhodamine isothiocyanate crystals (Sigma) were inserted at two or three places into each hind limb thigh and the egg hole was sealed with a cellophane tape. The eggs were incubated for another 24 hrs. Some of the operated embryos were then processed for frozen sections after formaldehyde fixation. […] The other embryos were used for cell preparation using the method described above (18.1.1). After 5 hrs in culture cells were rinsed with warm HBSS, fixed with 4% formaldehyde in PBS at room temperature for 20 min, rinsed with PBS and then mounted in glycerol-PBS (1:1) with glass coverslips. Of the total cells approximately 83% were labeled and identified as motorneurons (FIG. 42.) Most of these labeled motorneurons were large cells and the rest were intermediate-size cells. No small cells were labeled. On the other hand, in experiments in which cells were not labeled with a fluorescent dye about 70% of the total cells were large phase-bright cells with round cell somas, about 20% were intermediate-size neurons (most of them may be motorneurons) and about 10% were small immature neurons (they have neuron-like processes with growth cones but have phase-dark semi-flat cell somas). Non-neuronal cells were either not present or accounted for less than 2%. Taken together, one may conclude that at least 83% of the cells are motorneurons while the remainder consists of non-labeled motorneurons, a small number of unidentified intermediate-size neurons and about 10% immature small neurons. […]

[3] = system: GABAergic neurons (hippocampal cultures); assay: Effect of other neurotrophic factors on GABAergic hippocampal neurons in culture; assay type: cell-based, rat
Description: Hippocampi were dissected from E18-19 rat embryos of Sprague-Dawley rats, and collected in F10 medium. The tissues were minced, rinsed twice with F10 medium (Gibco) and trypsinized with 0.25% trypsin (Gibco) for 20 minutes at 37° C. Trypsin was inactivated by the addition of a serum-containing medium composed of minimal essential medium (MEM) supplemented with fetal calf serum (FCS, 10%), glutamine (2 mM), penicillin (25 U/ml) and streptomycin (25 ug/ml). Dissociated cells obtained by gentle trituration were collected and centrifuged at low speed (500 rpm) for 30 seconds. The centrifugation was repeated twice, and the cell pellets were then resuspended in serum-containing medium. The cells were then plated onto 6 mm wells or 35 mm dishes that were coated with polyornithine (10 ug/ml) and laminin (10 ug/ml). In most of the experiments, the cells were plated at a low density of approximately 71,000 cells/cm^2. Five to six hours following the plating of cells, medium was changed to a serum-free medium containing 1% N3 and penicillin-streptomycin (25 units/ml and 25 ug/ml, respectively), at which time CNTF was added. Medium was changed every three to four days, with re-addition of the factor. […]

[4] = system: E10 rat ciliary ganglion neurons; assay: Survival and neurite outgrowth of ciliary ganglion neurons with E. coli protein extract; assay type: cell-based
Description: (§2) In addition, protein extracts were prepared from the same cells lysed by treatment with lysozyme followed by three cycles of freezing and thawing. […] No such activity could be detected in control extracts from the same host cells carrying the plasmid vector without the rCNTF gene.

[5] = system: E8 chick ciliary ganglion neurons; assay: Survival of dissociated E8 chick ciliary ganglion neurons; assay type: cell-based; conditions: dissociated, neuron-enriched E8 chick ciliary ganglion cultures
From the text: Ciliary neurotrophic factor activity may be evaluated using any CNTF-sensitive in vivo or in vitro system known in the art. For example, and not by way of limitation, in vitro systems have been developed which measure CNTF activity by quantitating 24-hour survival of embryonic (E8) chick ciliary ganglion (CG) neurons in monolayer cultures.
For example, ciliary ganglia may be collected from E8 chick embryos, dissociated (yielding approximately 20,000 cells per ganglion) and then diluted in HEBM medium containing 20 percent horse serum as described in Varon et al. (1979, Brain Res. 173:29-45). About fifty microliters of cell suspension containing neurons (2,000 cells) may then be seeded into microliter dishes and putative CNTF activity may be added. Culture plates may then be maintained at 37° C. in 5% CO2 for 24 hours, after which the cultures may be fixed by the addition of 200 μl 2 per cent glutaraldehyde in HEBM medium, and the number of surviving neurons may be determined visually by direct count under phase contrast microscopy.
Chick embryo ciliary ganglion cultures were created and maintained according to the method set forth in (Hughes et al., 1988, Nature 335 : 70-73).
as §1

[6] = system: E8 dorsal root ganglion neurons; assay: Survival and neurite outgrowth of dorsal root ganglion neurons / DRG assay with E. coli protein extracts; assay type: cell-based; conditions: protein extract of E. coli W3110iqF-/rCNTF-C-1; after 24 and 48 hours in vitro
Description: as §2
Human CNTF sequence, engineered to lack intron sequences, has been inserted into the pCP93 vector and used to transform competent E. coli.

B1: pRPN112: hCNTF interrupted after the 145th codon plus one leucine; lacks 55 carboxyl-terminal residues (protein, UniProt P26441 1-145, looked up, fragment)
chain: MAFTEHSPLTPHRRDLCSRSIWLARKIRSDLTALTESYVKHQGLNKNINLDSADGMPVASTDQWSELTEAERLQENLQAYRTFHVLLARLLEDQQVHFTPTEGDFHQAIHTLLLQVAAFAYQIEELMILLEYKIPRNEADGMPIN
modifications: plus one C-terminal leucine
notes: hCNTF interrupted after the 145th codon plus one leucine; lacks 55 carboxyl-terminal residues
- biological activity [1]: inactive

B2: BDNF: brain derived neurotrophic factor (porcine in Table VI) (protein, UniProt P14082 134-252, looked up)
Neurotrophic factor BDNF: HSDPARRGELSVCDSISEWVTAADKKTAVDMSGGTVTVLEKVPVSKGQLKQYFYETKCNPMGYTKEGCRGIDKRHWNSQCRTTQSYVRALTMDSKKRIGWRFIRIDTSCVCTLTIKRGR
modifications: Neurotrophic factor BDNF
- Survival ([2]; after 3 days in culture, one concentration per molecule, Table VI, CNTF rat, rec.): −
- survival effect on motoneurons ([2]; supramaximal concentrations, NT-3 produced by transfected Cos-cells): no discernable effect
- effect on / survival of GABAergic neurons [3]: does not seem to promote the survival

B3: pRPN65: rCNTF terminated immediately after the 165th codon (protein, UniProt P20294 1-165, looked up, fragment)
chain: MAFAEQTPLTLHRRDLCSRSIWLARKIRSDLTALMESYVKHQGLNKNINLDSVDGVPVASTDRWSEMTEAERLQENLQAYRTFQGMLTKLLEDQRVHFTPTEGDFHQAIHTLMLQVSAFAYQLEELMVLLEQKIPENEADGMPATVGDGGLFEKKLWGLKVLQEL
- biological activity [1]: inactivated

B4: pRPN59: hCNTF interrupted after the 185th codon, followed by 10 additional unrelated amino acids (protein, UniProt P26441 1-185, looked up, fragment)
chain: MAFTEHSPLTPHRRDLCSRSIWLARKIRSDLTALTESYVKHQGLNKNINLDSADGMPVASTDQWSELTEAERLQENLQAYRTFHVLLARLLEDQQVHFTPTEGDFHQAIHTLLLQVAAFAYQIEELMILLEYKIPRNEADGMPINVGDGGLFEKKLWGLKVLQELSQWTVRSIHDLRFISSHQTG
modifications: plus 10 unrelated C-terminal residues
- biological activity [1]: as active as the full length protein

B5: recombinant rat CNTF: rat ciliary neurotrophic factor expressed in E. coli (protein, UniProt P20294 1-200, looked up)
Ciliary neurotrophic factor: MAFAEQTPLTLHRRDLCSRSIWLARKIRSDLTALMESYVKHQGLNKNINLDSVDGVPVASTDRWSEMTEAERLQENLQAYRTFQGMLTKLLEDQRVHFTPTEGDFHQAIHTLMLQVSAFAYQLEELMVLLEQKIPENEADGMPATVGDGGLFEKKLWGLKVLQELSQWTVRSIHDLRVISSHQMGISALESHYGAKDKQM
- amount of rCNTF at which maximal activity was seen ([4]; ciliary and dorsal root ganglion neuron cultures): less than 1 nanogram
- survival and neurite outgrowth of E10 rat ciliary ganglion neurons ([4]; protein extract of E. coli W3110iqF-/rCNTF-C-1, after 24 and 48 hours in vitro): up to 50%
- motorneurons alive after 3 days in culture ([2]; recombinant rat CNTF, 5 ng/ml): about 70%
- motorneurons alive after 6 days in culture ([2]; recombinant rat CNTF, 5 ng/ml): about 60%
- lowest concentration at which activity was detectable [5]: 2 pg/mL
- survival and neurite outgrowth of E8 dorsal root ganglion neurons [6]: approximately 30%

B6: pRPN109: hCNTF with serine in place of cysteine at amino acid 17, encoded in plasmid pRPN109 (protein, UniProt P26441 1-200, looked up, variant C17S)
Ciliary neurotrophic factor: MAFTEHSPLTPHRRDLSSRSIWLARKIRSDLTALTESYVKHQGLNKNINLDSADGMPVASTDQWSELTEAERLQENLQAYRTFHVLLARLLEDQQVHFTPTEGDFHQAIHTLLLQVAAFAYQIEELMILLEYKIPRNEADGMPINVGDGGLFEKKLWGLKVLQELSQWTVRSIHDLRFISSHQTGIPARGSHYIANNKKM
- biological activity [1]: as active as the full length protein
